The results in this text go back to publication doi:10.1101/2021.03.24.436638.

The assay has as its target calnexin (simian (endogenous in COS7)). Briefly: co-IP.

B1: GlyT2 A277T mutant (rat numbering; rat version of human A275T) (natural protein)
chain: MDCSAPKEMNKPPTNILEATVPGHRDSPRAPRTSPEQDLPAAAPAAAVQPPRVPRSASTGAQTFQSADARACEAQRPGVGFCKLSSPQAQATSAALRDLSEGHSAQANPPSGAAGAGNALHCKIPALRGPEEDENVSVGKGTLEHNNTPAVGWVNMSQSTVVLGTDGIASVLPGSVATTTIPEDEQGDENKARGNWSSKLDFILSMVGYAVGLGNVWRFPYLAFQNGGGAFLIPYLMMLALAGLPIFFLEVSLGQFASQGPVSVWKAIPALQGCGITMLIISVLIAIYYNVIICYTLFYLFASFVSVLPWGSCNNPWNTPECKDKTKLLLDSCVIGDHPKIQIKNSTFCMTAYPNLTMVNFTSQANKTFVSGSEEYFKYFVLKISAGIEYPGEIRWPLAFCLFLAWVIVYASLAKGIKTSGKVVYFTATFPYVVLVILLIRGVTLPGAGAGIWYFITPKWEKLTDATVWKDAATQIFFSLSAAWGGLITLSSYNKFHNNCYRDTLIVTCTNSATSIFAGFVIFSVIGFMANERKVNIENVADQGPGIAFVVYPEALTRLPLSPFWAIIFFLMLLTLGLDTMFATIETIVTSISDEFPKYLRTHKPVFTLGCCICFFIMGFPMITQGGIYMFQLVDTYAASYALVIIAIFELVGISYVYGLQRFCEDIEMMIGFQPNIFWKVCWAFVTPTILTFILCFSFYQWEPMTYGSYRYPNWSMVLGWLMLACSVIWIPIMFVIKMYLAPGRFIERLKLVCSPQPDWGPFLAQHRGERYKNMIDPLGTSSLGLKLPVKDLELGTQC
Molecule B1 yielded an amount coimmunoprecipitated with CNX, percent of wild-type GlyT2 of 289%.

B2: GlyT2 Y707C mutant (rat numbering; rat version of human Y705C) (natural protein)
chain: MDCSAPKEMNKPPTNILEATVPGHRDSPRAPRTSPEQDLPAAAPAAAVQPPRVPRSASTGAQTFQSADARACEAQRPGVGFCKLSSPQAQATSAALRDLSEGHSAQANPPSGAAGAGNALHCKIPALRGPEEDENVSVGKGTLEHNNTPAVGWVNMSQSTVVLGTDGIASVLPGSVATTTIPEDEQGDENKARGNWSSKLDFILSMVGYAVGLGNVWRFPYLAFQNGGGAFLIPYLMMLALAGLPIFFLEVSLGQFASQGPVSVWKAIPALQGCGIAMLIISVLIAIYYNVIICYTLFYLFASFVSVLPWGSCNNPWNTPECKDKTKLLLDSCVIGDHPKIQIKNSTFCMTAYPNLTMVNFTSQANKTFVSGSEEYFKYFVLKISAGIEYPGEIRWPLAFCLFLAWVIVYASLAKGIKTSGKVVYFTATFPYVVLVILLIRGVTLPGAGAGIWYFITPKWEKLTDATVWKDAATQIFFSLSAAWGGLITLSSYNKFHNNCYRDTLIVTCTNSATSIFAGFVIFSVIGFMANERKVNIENVADQGPGIAFVVYPEALTRLPLSPFWAIIFFLMLLTLGLDTMFATIETIVTSISDEFPKYLRTHKPVFTLGCCICFFIMGFPMITQGGIYMFQLVDTYAASYALVIIAIFELVGISYVYGLQRFCEDIEMMIGFQPNIFWKVCWAFVTPTILTFILCFSFYQWEPMTCGSYRYPNWSMVLGWLMLACSVIWIPIMFVIKMYLAPGRFIERLKLVCSPQPDWGPFLAQHRGERYKNMIDPLGTSSLGLKLPVKDLELGTQC
As for B2, the amount coimmunoprecipitated with CNX, percent of wild-type GlyT2 came to 188%.
